Test results reported in US20050008616A1, “Recombinant human interferon-beta-1b polypeptides” (Schering Aktiengesellschaft, priority 2003, published 2005).
Several values for one entry are separate records, joined by “and”; a condition that tells them apart may be missing. Equal entries are not always repeated.

How the values were obtained:
[1] = molecular target: T1, fibroblast-derived native IFN-β (Homo sapiens, UniProt P01574); conditions: partially purified native interferon; cited from earlier work
T1 construct: host or cells: human fibroblasts (natural producer)
T1 sequence (P01574 22-187): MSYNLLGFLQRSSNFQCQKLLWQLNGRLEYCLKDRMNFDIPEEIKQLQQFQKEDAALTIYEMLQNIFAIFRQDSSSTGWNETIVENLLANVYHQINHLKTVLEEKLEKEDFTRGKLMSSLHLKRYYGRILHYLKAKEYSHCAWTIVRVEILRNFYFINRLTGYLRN

[2] = molecular target: T2, Soybean Agglutinun (soybean, UniProt P05046 33-285, biotinylated (sites not given)); test: dot blot, probed with biotinylated lectin
T2 construct: Bought biotinylated lectin; also called SBA
T2 sequence (P05046 33-285 limits assumed): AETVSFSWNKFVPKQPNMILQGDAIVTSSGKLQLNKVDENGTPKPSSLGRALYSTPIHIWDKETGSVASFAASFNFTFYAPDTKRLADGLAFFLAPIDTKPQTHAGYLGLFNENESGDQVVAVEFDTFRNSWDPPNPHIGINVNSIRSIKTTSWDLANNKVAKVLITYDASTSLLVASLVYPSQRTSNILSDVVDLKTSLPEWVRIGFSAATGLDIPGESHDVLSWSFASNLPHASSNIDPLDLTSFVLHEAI
Description: Finally, IFN-β-1b lot A was tested for binding to biotinylated lectins from Vector Laboratories.

[3] = test system: EAE; conditions: rodent EAE; cited from earlier work
[4] = IFN-β specific activity, assay not stated
[5] = test system: MxA gene; test: MxA gene induction assay (ICLA); assay type: cell-based, human
Description: Based on the specific induction of the MxA gene by type I IFNs in cultured human cells (Von Wussow, P. et al. (1990) Eur. J. Immunol. 20:2015-2019; and Simon, A. et al. (1991) J. Interferon Res. 11:215-219), an immunochemiluminometric (“ICLA”) assay was developed by Files, J. G. et al. (1998) J. Interferon Res. 18:1019-1024. The ICLA assay, which is based on the procedure of Oh, S. K. et al. (1994) J. Immunol. Meth. 176:79-91, detects MXa protein in cell lysates using two non-competing anti-MxA monoclonal antibodies, one of which is conjugated with acridinium ester, which is detected in a luminometer. The MxA gene induction ICLA assay procedure used herein is described in detail in Files, J. G. et al. (1998) supra.

[6] = test system: human amnionic cell line WISH infected with VSV; assay type: cell-based, vesicular stomatitis virus; conditions: WISH cells infected with VSV, viral plaque reduction

CC(=O)N[C@H]1[C@H]([C@H](O)[C@H](O)CO)OC(O)(C(=O)O)C[C@@H]1O (stereo partly shown) [sialic acid, N-acetylneuraminic acid]
effect on antiviral activity of native IFN-β [1]: not

(N-acetylneuraminosyl)galactosylglucosylceramide [GM3]
effect on antiviral activity of native IFN-β [1]: abolished

B1: peak IFN-β-1b (fraction 5) from the Con A Sepharose column (ligand)
chain: MSYNLLGFLQRSSNFQSQKLLWQLNGRLEYCLKDRMNFDIPEEIKQLQQFQKEDAALTIYEMLQNIFAIFRQDSSSTGWNETIVENLLANVYHQINHLKTVLEEKLEKEDFTRGKLMSSLHLKRYYGRILHYLKAKEYSHCAWTIVRVEILRNFYFINRLTGYLRN
notes: Same polypeptide as IFN-β-1b lot A, after Con A Sepharose chromatography removed most of the non-covalently attached carbohydrate; The note on Met1 for m1 applies here too; also called IFN-β-1b lot A further purified by Con A Sepharose column chromatography
binding result [2]: no binding

B2: IFN-β-1b: recombinant human IFN-β expressed in E. coli with Cys17 to Ser17 substitution, 165 amino acids, not glycosylated (SEQ ID NO: 2) (protein, listed as Homo sapiens)
chain: MSYNLLGFLQRSSNFQSQKLLWQLNGRLEYCLKDRMNFDIPEEIKQLQQFQKEDAALTIYEMLQNIFAIFRQDSSSTGWNETIVENLLANVYHQINHLKTVLEEKLEKEDFTRGKLMSSLHLKRYYGRILHYLKAKEYSHCAWTIVRVEILRNFYFINRLTGYLRN
in vivo efficacy in EAE models [3]: shows in vivo efficacy
specific activity [4]: 2 to 3×10^7 IU/mg and ~3×10^7 IU/mg

B3: IFN-β-1aSER17: IFN-β-1a in which Cys17 is replaced by Ser17, expressed in CHO cells, purified by affinity chromatography (protein, UniProt P01574 22-187, looked up, variant C17S)
Interferon beta: MSYNLLGFLQRSSNFQSQKLLWQLNGRLEYCLKDRMNFDIPEEIKQLQQFQKEDAALTIYEMLQNIFAIFRQDSSSTGWNETIVENLLANVYHQINHLKTVLEEKLEKEDFTRGKLMSSLHLKRYYGRILHYLKAKEYSHCAWTIVRVEILRNFYFINRLTGYLRN
decrease in specific activity ([5]; PNGase F-mediated deglycosylation, non-reducing or reducing conditions, FIG. 2B): 30-35%
effect on specific activity of overnight incubation alone ([5]; overnight (18 hours) incubation, FIG. 2B): not adversely affected
specific activity ([5]; product label specific activity of reconstituted IFN-β-1b/Betaseron® as IFN standard, FIG. 2A): 1.3 to 2.4×10^8 IU/mg
reduction in specific activity ([5]; reduction in the presence of SDS followed by spontaneous reoxidation, FIG. 2B): ~20%

B4: peak IFN-β-1b (fraction 5): IFN-β-1b lot A further purified by Con A Sepharose column chromatography, peak fraction 5, carbohydrates largely removed (protein, UniProt P01574 22-187, looked up, variant C17S)
Interferon beta: MSYNLLGFLQRSSNFQSQKLLWQLNGRLEYCLKDRMNFDIPEEIKQLQQFQKEDAALTIYEMLQNIFAIFRQDSSSTGWNETIVENLLANVYHQINHLKTVLEEKLEKEDFTRGKLMSSLHLKRYYGRILHYLKAKEYSHCAWTIVRVEILRNFYFINRLTGYLRN
modifications: interferon beta-1b; deglycosylated fraction
notes: IFN-β-1b lot A further purified by Con A Sepharose column chromatography, peak fraction 5, carbohydrates largely removed
specific activity [6]: 3.6×10^7 IU/mg
